Target: T1, Manduca sexta cadherin protein fragment (CR7–CR12) (Manduca sexta)
T1 construct: Manduca sexta cadherin receptor, fragment CR7–CR12, residues 810–1480; also called cadherin fragment; cadherin receptor fragment
Assay: ELISA; 1 μg of cadherin fragment coated per well; toxin or protoxin dilutions in PBS, 1 h at 37°C; detected with polyclonal anti-Cry1Ab antibody; Scatchard analysis; apparent Kd
Conditions: both partners purified

B1: trypsin-activated Cry1Ab toxin (domain or fragment)
chain: not shown
modifications: Wild-type toxin cut from the protoxin by trypsin. Limits are not given; the conventional Cry1A trypsin core is used (cut after R28, C-terminal end near residue 619). Subspecies is not printed …
Kd: 3.3 ± 0.6 nM

Reference: article PMC3969221, “Bacillus thuringiensis Cry1A toxins are versatile proteins with multiple modes of action: two distinct pre-pores are involved in toxicity” (Biochemical Journal, 2014)
